The values below come from paper PMC4191604 (Journal of Medicinal Chemistry, 2014).

Common to all, as to test: SPR
Assay [1] has as its target T1, GBP1 GTPase (human GBP1, recombinant wild type) (human, UniProt P32455 1-592).
T1 sequence (looked up): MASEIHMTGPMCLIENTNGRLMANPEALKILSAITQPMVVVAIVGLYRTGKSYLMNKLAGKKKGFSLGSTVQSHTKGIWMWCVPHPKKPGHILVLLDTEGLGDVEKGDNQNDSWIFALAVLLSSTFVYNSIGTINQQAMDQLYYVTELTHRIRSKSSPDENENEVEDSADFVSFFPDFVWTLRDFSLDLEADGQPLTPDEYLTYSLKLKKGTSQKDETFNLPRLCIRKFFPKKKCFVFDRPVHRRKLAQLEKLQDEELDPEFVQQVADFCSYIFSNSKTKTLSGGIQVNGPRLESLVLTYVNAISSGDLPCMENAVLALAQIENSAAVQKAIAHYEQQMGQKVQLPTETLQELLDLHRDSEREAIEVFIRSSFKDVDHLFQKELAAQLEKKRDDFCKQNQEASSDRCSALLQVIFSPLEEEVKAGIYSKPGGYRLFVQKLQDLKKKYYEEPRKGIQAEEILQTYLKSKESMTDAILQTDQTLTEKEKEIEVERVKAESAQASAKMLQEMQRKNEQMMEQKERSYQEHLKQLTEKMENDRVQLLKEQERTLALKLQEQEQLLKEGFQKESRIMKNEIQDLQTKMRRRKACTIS

For another assay, the target named is T2, GBP1 mutant D103N (human, UniProt P32455 1-592, D103N).
T2 sequence (looked up): T1 sequence (looked up) with D103N

For another assay, the target named is T3, GBP1 mutant R227E/K228E (human, UniProt P32455 1-592, R227E | K228E).
T3 sequence (looked up): T1 sequence (looked up) with R227E, K228E

In a further assay the target is T4, GBP1 mutant R227A/K228A (human, UniProt P32455 1-592, R227A | K228A).
T4 sequence (looked up): T1 sequence (looked up) with R227A, K228A

Assay [2] concerns the target T1, GBP1 GTPase (human GBP1, recombinant …). The source holds these as a separate data set.

For orientation: Kd means a measure of binding affinity in units of concentration.

Changes are numbered by the printed parent chain. Read-outs that look alike come from different tables or passages of the source.

B1: PIM1 (recombinant) (enzyme)
chain: not shown
Take B1: the Kd in assay [1] is 0.038 ± 0.014 µM; in the assay with GBP1 mutant D103N, 0.015 ± 0.0001 µM; with GBP1 mutant R227E/K228E, above 10 µM; with GBP1 mutant R227A/K228A, 0.061 ± 0.004 µM; in assay [2], 0.03 ± 0.01 µM.
